Series [1] in a line: Protein release from gels comprising anionically and cationically charged microparticles (release buffer, 37° C., BCA Protein Assay). It counts as physicochemical. The note with it: for time to reach a release of 50% of protein: HEPES pH 7 isotonised with NaCl, 37° C. The protocol:
To each of the gels prepared according to example 5, 1.5 mL release buffer (HEPES, pH 7, 100 mM, isotonised with NaCl) was added. Subsequently, the cups were incubated at 37° C. Samples of 1.0 mL were taken at various intervals and replaced by 1.0 mL fresh buffer. The protein concentration in the samples was measured […] using the BCA Protein Assay.
Gels loaded with IgG were prepared in analogy to example 5 and tested in analogy to example 6, except that IgG was used as a model protein instead of lysozyme and BSA.

The nature of series [2]: Incorporation of protein into charged microparticles. The class given is physicochemical. The note with it: neutral or physiological pH.

For the substance IgG, the protein released entry in series [1] (after about 60 days, gels prepared in analogy to example 5) was “approx. 50%”. Besides, in series [1] (gels of oppositely charged microparticles), the “release rate compared with the other model proteins” value is reported as “substantially slower”.
Consider lysozyme, for which, in series [1] (12.5%-gel (solid content about 12.5%)), the “time to reach a release of 50% of protein” value is “about 20 h”. Also, the “time to reach a release of 50% of protein” value in series [1] (25.5%-gel (so in the source)) was “about 85 h”. Moreover, in series [2], the “incorporation into negatively charged microparticles” value is “easily incorporated” and the “incorporation into positively charged microparticles” value is listed as “not very efficiently incorporated”.

The values are drawn from US20080226722A1, “Gel Composition Comprising Charged Polymers” (priority 2004, published 2008).
